From publication PMC4263503 (Cell, 2014)
Like-named read-outs stand apart in the source and are kept apart here.

Experiments:
[1] = molecular target: T1, Human Tau, hTau40 (isoform F, the longest isoform of Tau) (human, UniProt P10636-8 1-441); experiment: other fluorescence titration
[2] = molecular target: T1, Human Tau, hTau40 (isoform F, the …); experiment: other fluorescence titration; remark: listed apart in the source

- Kd [1]: 5.2 ± 3 µM
- Kd [2]: 4.8 ± 1 µM
B1: Human Hsp90β (natural protein)
chain: not shown
